{
  "source": "paper PMC8567202",
  "about": "“Phosphoinositide-binding activity of Smad2 is essential for its function in TGF-β signaling” (The Journal of Biological Chemistry, 2021)",
  "experiment": "SPR membrane binding to POPC/POPS/PI(4,5)P2 vesicles",
  "from_the_text": "It has been generally thought that Smad2 and Smad3 are targeted to the activated TGF-β signaling complex by direct interaction with TβRI ([1], [2]) or via SARA ([7]). However, it has been shown that many cytosolic proteins that are targeted to membrane proteins or membrane-anchored signaling complexes have affinity for membrane lipids ([14]), phosphoinositides (PtdInsPs) in particular, and that their membrane recruitment is mediated by coincident lipid–protein and protein–protein interactions ([15], [16]). For most of these proteins, their PtdInsP specificity directs their membrane targeting behaviors: e.g., PI(4,5)P2-specific proteins are recruited to PM where the highest concentration of PI(4,5)P2 is found, whereas PI(3)P-specific proteins are targeted to PI(3)P-rich EEs ([17], [18]). To resolve uncertainty about the functional location of the activated TGF-β signaling complex, we thus explored the possibility that lipid-binding activity of Smad2 may play a role in specific targeting of Smad2 to the active TGF-β receptor complex either at the PM or at EEs. Lipid-binding activity of Smad proteins has not been reported to date. We thus measured the binding of bacterially expressed Smad2 to large unilamellar vesicles (LUVs) containing various lipids by surface plasmon resonance (SPR) analysis ([19], [20]). Lipid selectivity determined by SPR analysis is typically reported as the relative resonance unit (RU) values for different lipids at a given protein concentration ([21], [22]). Although simple and intuitive, this type of analysis can sometimes yield misleading and erroneous results because some proteins show widely different RU values when bound to different lipid surfaces. Thus, a more reliable parameter that represents the fraction of the membrane bound protein molecules at a given protein concentration would be a normalized value of RU/RUmax where RUmax indicates the maximal RU value when a given lipid surface is saturated with the protein molecules. We thus estimated RUmax for different lipid species by employing the highest protein concentration experimentally feasible (e.g., 1 μM) and determined RU/RUmax for different lipids at the protein concentration that allows robust comparison (e.g., 100 nM). Once the lipid selectivity has been determined by this semiquantitative approach, we then rigorously determined and compared Kd values for selected lipids for more accurate quantitative determination of lipid selectivity.\nFigure 1 Membrane-binding properties of Smad2 FL protein and MH2 domain determined by SPR analysis.A, PtdInsP selectivity of Smad2-FL determined using POPC/POPS/PtdInsP (77:20:3 in mole ratio) LUVs coated on the L1 sensor chip. The protein concentration was 100 nM. PIP3 indicates PI(3,4,5)P3. B, determination of Kd for binding of Smad2 FL to different LUVs. The protein concentration was varied from 0 to 500 nM. C, PI(4,5)P2 concentration dependence of membrane binding of Smad2-FL determined using POPC/POPS/PI(4,5)P2 (77-x:20:x, x = 0–5 mol%) LUVs. The protein concentration was 100 nM. D, PtdInsP selectivity of the Smad2 MH2 domain determined using POPC/POPS/PtdInsP (77:20:3 in mole ratio) LUVs. The protein concentration was 100 nM. Normalized RU values (RU/RUmax) were used for all figures but (C) for more accurate determination of PtdInsP selectivity. RUmax values determined for different vesicles at 1 μM Smad2 were: 280 ± 20 for POPC/POPS/PI(4,5)P2 (77:20:3), 370 ± 10 for POPC/POPS/PI(3,4)P2 (77:20:3), 400 ± 15 for POPC/POPS/PI(3,4,5)P3 (or PIP3) (77:20:3), 400 ± 20 for POPC/POPS/PI(3)P (77:20:3), and 380 ± 20 for POPC/POPS (80:20). Only the association phases of the sensorgrams are shown and used for further analysis. Each set of sensorgrams shown in A and D are representatives of >5 independent measurements. Data points shown in B and C are the average ±S.D. values from triplicate measurements. […]",
  "data": [
    {"molecule": "Smad2 WT: bacterially expressed full-length Smad2 wild-type (protein, left off: His6, N-terminal, state not stated, bacterially expressed full-length Smad2 wild-type) MSSILPFTPPVVKRLLGWKKSAGGSGGAGGGEQNGQEEKWCEKAVKSLVKKLKKTGRLDELEKAITTQNCNTKCVTIPSTCSEIWGLSTANTVDQWDTTGLYSFSEQTRSLDGRLQVSHRKGLPHVIYCRLWRWPDLHSHHELKAIENCEYAFNLKKDEVCVNPYHYQRVETPVLPPVLVPRHTEILTELPPLDDYTHSIPENTNFPAGIEPQSNYIPETPPPGYISEDGETSDQQLNQSMDTGSPAELSPTTLSPVNHSLDLQPVTYSEPAFWCSIAYYELNQRVGETFHASQPSLTVDGFTDPSNSERFCLGLLSNVNRNATVEMTRRHIGRGVRLYYIGGEVFAECLSDSAIFVQSPNCNQRYGWHPATVCKIPPGCNLKIFNNQEFAALLAQSVNQGFEAVYQLTRMCTIRMSFVKGWGAEYRRQTVTSTPCWIELHLNGPLQWLDKVLTQMGSPSVRCSSMS", "values": [
      {"measurement": "RUmax", "setting": "POPC/POPS/PI(4,5)P2 (77:20:3), 1 μM Smad2", "result": "280 ± 20"},
      {"measurement": "affinity for PI(4,5)P2-containing vesicles relative to PI(3)P-containing ones", "setting": "SPR, Kd comparison", "result": "twofold higher affinity"},
      {"measurement": "increase in membrane affinity by 3 mol% PI(4,5)P2 over POPC/POPS (80:20) vesicles", "setting": "SPR, Kd comparison", "result": 5.6, "unit": "fold"},
      {"measurement": "Kd", "setting": "SPR, L1 chip, 23 °C, 20 mM Tris, pH 7.4, 0.16 M NaCl, POPC/POPS/PI(4,5)P2 (77:20:3), average ±S.D., n = 3, read-out: Kd for lipid binding, PC/PS/PI(4,5)P2", "result": "100 ± 20", "unit": "nM"},
      {"measurement": "PI(4,5)P2 concentration dependence of membrane binding", "setting": "SPR, POPC/POPS/PI(4,5)P2 (77-x:20:x, x = 0–5 mol%), 100 nM protein", "result": "dependent on the PI(4,5)P2 concentration"}
    ]}
  ]
}
